Test results taken from patent US20260242478A1 (published 2026).

B1: Phage-1573 (peptide)
peptide: WCDQFFHYKWPLCL
B2: Phage-1562 (peptide)
peptide: LCAAGATYPWPICL
B3: Phage-1572 (peptide)
peptide: TCSAGATYTWPSCF
B4: Phage-1561 (peptide)
peptide: TCAAGANWHWPWCF
B5: Phage-1575 (peptide)
peptide: TCAAGAHYSWPFCM
B6: Phage-1569 (peptide)
peptide: WCGVGMDWRWPECL
B7: Phage-1565 (peptide)
peptide: SCSAGAMYQWPLCF
B8: Phage-1574 (peptide)
peptide: SCAAGATYVWPMCF
B9: Phage-1564 (peptide)
peptide: TCSAGFSYKWPWCW
B10: Phage-1567 (peptide)
peptide: TCSAGATYMWPACF
B11: Phage-1568 (peptide)
peptide: TCSAGATYAWPACF
B12: Phage-1563 (peptide)
peptide: SCSAGALWKWPVCF
B13: Phage-1570 (peptide)
peptide: TCEDGFHFSWPECF
B14: Phage-3108 (peptide)
peptide: SEVVCVPTWMCTGF
notes: Clonal phage of the peptide-180 library; not shown: pIII filament protein of the bacteriophage, fused to the peptide
B15: Phage-3106 (peptide)
peptide: NPMYCKPSWMCEGF
notes: as for B14
B16: Phage-3102 (peptide)
peptide: DFAYCKPEWMCVGF
notes: as for B14
B17: Phage-3104 (peptide)
peptide: GEVLCRPAWMCSGF
notes: as for B14
B18: Phage-3107 (peptide)
peptide: PVAVCKPEWMCIGF
notes: as for B14
B19: Phage-3103 (peptide)
peptide: GEILCRPAWMCYGF
notes: as for B14
B20: Phage-3105 (peptide)
peptide: QEIRCEPIWMCWGF
notes: as for B14
B21: Phage-1790 (peptide, not shown: large carriers)
peptide: EPKWCVPRGLCNYD
notes: Clonal phage supernatant; also called Peptide-240
B22: Phage-1794 (peptide, not shown: large carriers)
peptide: VQIQCRPAWMCLGF
notes: Clonal phage supernatant
B23: Phage-1798 (peptide, not shown: large carriers)
peptide: VEKVCKPVWMCVGF
notes: Clonal phage supernatant
B24: Phage-1797 (peptide, not shown: large carriers)
peptide: FTNYCVPSWMCTGF
notes: Clonal phage supernatant
B25: Phage-1800 (peptide, not shown: large carriers)
peptide: ESRLCVPAWMCAGF
notes: Clonal phage supernatant; also called Peptide-270
B26: Phage-1795 (peptide, not shown: large carriers)
peptide: AEVKCIPQWMCQGF
notes: Clonal phage supernatant
B27: Phage-1799 (peptide, not shown: large carriers)
peptide: EEPLCRPVWMCEGF
notes: Clonal phage supernatant
B28: Phage-1792 (peptide, not shown: large carriers)
peptide: IVPLCKPAWMCKLF
notes: Clonal phage supernatant
B29: Phage-1801 (peptide, not shown: large carriers)
peptide: EDILCKPKWMCEGF
notes: Clonal phage supernatant
B30: Phage-1796 (peptide, not shown: large carriers)
peptide: TAHHCKPAWMCTGF
notes: Clonal phage supernatant
B31: Phage-1802 (peptide, not shown: large carriers)
peptide: LHVYCVPEWMCAGF
notes: Clonal phage supernatant; also called Peptide-272
B32: Phage-1793 (peptide, not shown: large carriers)
peptide: AVKACIPEWMCIGF
notes: Clonal phage supernatant
B33: Phage-1791 (peptide, not shown: large carriers)
peptide: YFVQCRPAWMCEGF
notes: Clonal phage supernatant
B34: Phage-1320 (peptide)
peptide: YCAGHIPQYLNKCL
notes: Peptide-87 library clone, tested as clonal phage (peptide fused to pIII of the bacteriophage)
B35: Phage-1318 (peptide)
peptide: YCEGHLGLYMKKCL
notes: as for B34
B36: Phage-1316 (peptide)
peptide: YCEGHVPQYMGKCL
notes: as for B34
B37: Phage-1323 (peptide)
peptide: YCAGHDAEYMQKCL
notes: as for B34
B38: Phage-1317 (peptide)
peptide: YCDGHAAMYMSKCL
notes: as for B34
B39: Phage-1324 (peptide)
peptide: YCEGHMQWYMAKCL
notes: as for B34
B40: Phage-1321 (peptide)
peptide: YCDGHSTEYMWKCL
notes: as for B34
B41: Phage-1322 (peptide)
peptide: YCEGHIKDYMTKCL
notes: as for B34
B42: Phage-1326 (peptide)
peptide: YCDGHDEQYLMKCL
notes: as for B34
B43: Phage-1315 (peptide)
peptide: YCAGHTTEYIVKCL
notes: as for B34
B44: Phage-1319 (peptide)
peptide: YCAGHAQEYMRKCL
notes: as for B34
B45: Phage-1325 (peptide)
peptide: YCEGHAPVYMQKCL
notes: as for B34

Each binder was assayed against T1, Anti-CD28 Fab (SEQ ID NOs: 696, 697) (assay: phage ELISA; biotinylated anti-CD28 Fab on neutravidin plate, wells pre-incubated with CD28 antigen as competitor, anti-M13 HRP detection).
T1 construct: Biotinylated and captured on neutravidin coated plates in the phage ELISA
T1 sequence (VH, as listed by the source, chain 1 of 2): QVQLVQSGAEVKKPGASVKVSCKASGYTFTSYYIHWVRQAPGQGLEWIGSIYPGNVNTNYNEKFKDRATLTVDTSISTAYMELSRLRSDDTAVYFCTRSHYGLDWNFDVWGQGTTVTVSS
T1 sequence (VL, as listed by the source, chain 2 of 2): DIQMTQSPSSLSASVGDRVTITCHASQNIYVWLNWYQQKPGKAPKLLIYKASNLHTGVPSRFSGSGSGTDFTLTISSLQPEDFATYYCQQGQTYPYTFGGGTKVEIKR
Protocol: (§1) Clonal phage were harvested as crude supematants and screened via standard ELISAs. […] Prior to the addition of clonal phage, wells were incubated with blocking buffer and CD28 antigen or blocking buffer alone. Without washing or aspirating, clonal phage supematants were then added to the wells and incubated for a short time. Wells were then washed followed by detection of bound phage using a horse radish conjugated anti-M13 antibody.

Row | Binder | Phage binding ELISA, Anti-CD28 Fab signal in the presence of CD28
1 | B1 | 0.07
2 | B2 | 0.08
3 | B3 | 0.06
4 | B4 | 0.15
5 | B5 | 0.07
6 | B6 | 0.16
7 | B7 | 0.09
8 | B8 | 0.07
9 | B9 | 0.06
10 | B10 | 0.1
11 | B11 | 0.08
12 | B12 | 0.07
13 | B13 | 0.07

Each binder was assayed against T2, PSMA Fab (biotinylated (site not stated)) (assay: clonal phage supernatant ELISA on biotinylated PSMA Fab captured on neutravidin; anti-M13-HRP detection).
T2 construct: Biotinylated PSMA Fab captured on neutravidin coated plates for the clonal phage ELISA; also called Anti-PSMA Fab; 006 PSMA Fab

Row | Binder | Phage binding ELISA signal, Anti-PSMA Fab
14 | B14 | 2.08
15 | B15 | 2.08
16 | B16 | 2.09
17 | B17 | 2.09
18 | B18 | 2.08
19 | B19 | 2.09
20 | B20 | 2.09

The binders below were run against T2, PSMA Fab (assay: clonal phage supernatant ELISA on PSMA Fab pre-incubated with PSMA antigen as competitor; anti-M13-HRP detection).
Protocol: (§2) Clonal phage were harvested as crude supernatants and screened via standard ELISAs. […] Prior to the addition of clonal phage. wells were incubated with blocking buffer and PSMA antigen or blocking buffer alone. Without washing or aspirating, clonal phage supernatants were then added to the wells and incubated for a short time. Wells were then washed followed by detection of bound phage using a horse radish conjugated anti-M13 antibody.

Row | Binder | Phage binding ELISA signal, Anti-PSMA Fab with PSMA antigen
21 | B14 | 0.0805
22 | B15 | 0.0958
23 | B16 | 0.0844
24 | B17 | 0.11
25 | B18 | 0.105
26 | B19 | 0.119
27 | B20 | 0.147

These binders were tested against T3, Anti-PSMA Fab (SEQ ID NOs: 19, 20) (assay: phage binding ELISA; biotinylated PSMA Fab on neutravidin plate pre-incubated with PSMA antigen (competitor), anti-M13 HRP detection;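 also: competition ELISA where clonal phage supernatants were added to wells preincubated with PSMA antigen or with blocking buffer only as control, bound phage read via HRP-coupled anti-M13 antibody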).
T3 construct: also called 006 PSMA Fab
Protocol: as §2

Row | Binder | Anti-PSMA Fab signal in the presence of PSMA
28 | B21 | 0.0587
29 | B22 | 0.127
30 | B23 | 0.156
31 | B24 | 0.129
32 | B25 | 0.103
33 | B26 | 0.0852
34 | B27 | 0.117
35 | B28 | 0.221
36 | B29 | 0.109
37 | B30 | 0.103
38 | B31 | 0.109
39 | B32 | 0.106
40 | B33 | 0.339

Each binder was assayed against Anti-CD28 Fab (SEQ ID NOs: 696, 697) (assay: phage binding ELISA on captured anti-CD28 Fab, wells pre-incubated with CD28 antigen as competitor;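 also: crude clonal phage supernatants added to wells preloaded with CD28 antigen, bound phage read by HRP-conjugated anti-M13 antibody, control wells got blocking buffer alone without CD28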).
Target sequence in this assay (VH, as listed by the source, chain 1 of 2): as the sequence (VH, as listed by the source, chain 1 of 2) above
Target sequence in this assay (VL, as listed by the source, chain 2 of 2): as the sequence (VL, as listed by the source, chain 2 of 2) above

Row | Binder | Anti-CD28 Fab signal in the presence of CD28 (phage binding ELISA)
41 | B34 | 0.07
42 | B35 | 0.06
43 | B36 | 0.08
44 | B37 | 0.06
45 | B38 | 0.07
46 | B39 | 0.09
47 | B40 | 0.06
48 | B41 | 0.08
49 | B42 | 0.07
50 | B43 | 0.05
51 | B44 | 0.07
52 | B45 | 0.08

These binders were tested against T1, Anti-CD28 Fab (SEQ ID NOs: 696, 697) (assay: phage ELISA; biotinylated anti-CD28 Fab on neutravidin plate, clonal phage supernatant, anti-M13 HRP detection;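 also: before phage addition, wells were pretreated with either CD28 antigen in blocking buffer or only blocking buffer, and phage was added without an intervening wash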).
Protocol: as §1

Row | Binder | Phage binding ELISA, Anti-CD28 Fab signal
53 | B1 | 1.42
54 | B2 | 1.46
55 | B3 | 1.42
56 | B4 | 1.46
57 | B5 | 1.42
58 | B6 | 1.44
59 | B7 | 1.44
60 | B8 | 1.42
61 | B9 | 1.45
62 | B10 | 1.44
63 | B11 | 1.44
64 | B12 | 1.45
65 | B13 | 1.44

These binders were tested against T3, Anti-PSMA Fab (SEQ ID NOs: 19, 20) (assay: phage binding ELISA; biotinylated PSMA Fab on neutravidin plate, clonal phage supernatant, anti-M13 HRP detection;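 also: wells were preincubated with blocking buffer either containing PSMA antigen or without it before crude phage supernatant was added, briefly incubated, then washed prior to detection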).
Protocol: as §2

Row | Binder | Anti-PSMA Fab (SEQ ID NOs: 19, 20) signal
66 | B21 | 1.14
67 | B22 | 2.44
68 | B23 | 2.41
69 | B24 | 2.42
70 | B25 | 2.41
71 | B26 | 2.43
72 | B27 | 2.41
73 | B28 | 2.48
74 | B29 | 2.4
75 | B30 | 2.42
76 | B31 | 2.38
77 | B32 | 2.44
78 | B33 | 2.51

Each binder was assayed against Anti-CD28 Fab (SEQ ID NOs: 696, 697) (assay: phage binding ELISA, clonal phage on biotinylated anti-CD28 Fab captured on neutravidin plates;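 also: crude clonal phage supernatants added to wells pretreated with CD28 antigen or blocking buffer only, bound phage detected by HRP-linked anti-M13 antibody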).
Target sequence in this assay (VH, as listed by the source, chain 1 of 2): as the sequence (VH, as listed by the source, chain 1 of 2) above
Target sequence in this assay (VL, as listed by the source, chain 2 of 2): as the sequence (VL, as listed by the source, chain 2 of 2) above
Protocol: After panning, phage infected bacteria were plated out and colonies picked into 96 well blocks. Clonal phage was then amplified and separated from bacterial cells via centrifugation.
Clonal phage were harvested as crude supematants and screened via standard ELISAs. […] Prior to the addition of clonal phage, wells were incubated with blocking buffer and CD28 antigen or blocking buffer alone. Without washing or aspirating, clonal phage supematants were then added to the wells and incubated for a short time. Wells were then washed followed by detection of bound phage using a horse radish conjugated anti-M13 antibody. Clonal phage of interest were then sent for sequence analysis.

Row | Binder | Anti-CD28 Fab signal (phage binding ELISA)
79 | B34 | 0.49
80 | B35 | 0.49
81 | B36 | 0.5
82 | B37 | 0.46
83 | B38 | 0.5
84 | B39 | 0.45
85 | B40 | 0.49
86 | B41 | 0.47
87 | B42 | 0.44
88 | B43 | 0.5
89 | B44 | 0.49
90 | B45 | 0.44
